B1: H2-Kb / Ed16-1 (parent complex)
chain 1: GEQVEQRPPHLSVREGDSAVITCTYTDPNSYYFFWYKQEPGASLQLLMKVFSSTEINEGQGFTVLLNKKDKRLSLNLTAAHPGDSAAYFCAVSGSNNRIFFGDGTQLVVKP
chain 2: EAAVTQSPRSKVAVTGGKVTLSCHQTNNHDYMYWYRQDTGHGLRLIHYSYVADSTEKGDIPDGYKASRPSQENFSLILELASLSQTAVYFCASRTGTDYTFGSGTRLLVI
chain 3: not shown
chain 4: IQKTPQIQVYSRHPPENGKPNILNCYVTQFHPPHIEIQMLKNGKKIPKVEMSDMSFSKDWSFYILAHTEFTPTETDTYACRVKHDSMAEPKTVYWDRDM
chain 5: SIINFEKL

Variants of: B1
Assay: % of reporter cells activated (NFAT-GFP), raw; note: test concentration or dose not given here

Variant | ratio to parent
chain 5 E6H | 0.0978
chain 5 E6I | 0.0059
chain 5 E6Q | 0.187
chain 5 E6S | 0.0513
chain 5 E6F | 0.153
chain 5 E6D | 0.371
chain 5 E6K | 0.608
chain 5 E6M | 0.219
chain 5 E6N | 0.0535
chain 5 I2T | 0.926
chain 5 I2W | 0.749
chain 5 I2G | 1.04
chain 5 I2S | 0.94
chain 5 I2K | 0.743
chain 5 I2Q | 0.713
chain 5 I2L | 1.08
chain 5 I2Y | 0.597
chain 5 I2M | 1.06
chain 5 F5P | 0.181
chain 5 F5E | 0.742
chain 5 F5N | 0.725
chain 5 F5T | 0.843
chain 5 F5Y | 1.07
chain 5 F5I | 0.96
chain 5 F5G | 0.516

Variant | ratio to parent
chain 5 F5V | 0.848
chain 5 I3T | 0.716
chain 5 I3H | 0.33
chain 5 I3P | 0.865
chain 5 I3A | 0.883
chain 5 I3R | 0.301
chain 5 I3M | 0.842
chain 5 I3N | 0.755
chain 5 I3G | 0.473
chain 5 I3E | 0.864
chain 5 L8A | 1.01
chain 5 L8Q | 1.07
chain 5 L8P | 1.07
chain 5 L8F | 0.952
chain 5 L8G | 0.994
chain 5 L8N | 0.861
chain 5 L8M | 1.03
chain 5 K7T | 0.905
chain 5 K7Y | 1.04
chain 5 K7L | 0.832
chain 5 K7M | 0.848
chain 5 K7I | 0.847
chain 5 K7D | 0.979
chain 5 K7F | 0.632
chain 5 K7W | 0.776

Other lines, results leading:

ratio to parent | Variant
0.83 | chain 5 L8V
1 | chain 5 L8Y
0.0188 | chain 5 N4P
0.00138 | chain 5 N4V
0.0307 | chain 5 N4T
0.617 | chain 5 N4L
0.0302 | chain 5 N4F
0.000537 | chain 5 N4Q
0.00277 | chain 5 N4E
0.021 | chain 5 N4Y
0.0025 | chain 5 N4W
0.0463 | chain 5 N4G
0.19 | chain 5 N4R
0.0326 | chain 5 S1N
0.199 | chain 5 S1H
0.0746 | chain 5 S1E
0.00107 | chain 5 S1L
0.521 | chain 5 S1G
0.419 | chain 5 S1Y
0.00139 | chain 5 S1I
0.0013 | chain 5 S1F
0.0551 | chain 5 S1C
0.0447 | chain 5 S1W
0.48 | chain 5 S1A
0.0527 | chain 5 S1Q

Source: article PMC11480844 (2024)
